Drawing on publication PMC10311653 (2023), this text covers Kd for one molecule.

In the assay the target is hIL-1βQ15G (human). In words: ELISA; apparent Kd.
Sequence of hIL-1βQ15G (human) (chain, as listed by the source Q15G): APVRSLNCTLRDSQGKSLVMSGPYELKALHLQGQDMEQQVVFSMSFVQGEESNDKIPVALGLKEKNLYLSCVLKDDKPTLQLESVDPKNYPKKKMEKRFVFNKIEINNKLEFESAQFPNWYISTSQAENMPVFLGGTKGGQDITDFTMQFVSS

B1: Q15Kcr-G8-mFc (Fc fusion)
chain 1: EVQLQQSGAELVKPGASVKLSCTASDFNIKDTYIHWVKQRPEQGLEWIGRIDPADGNTKYDPKFQGKATITADTSSNTAYLQLSSLTSEDTAVYYCAIHYYGSFPYWGQGTLVTVSA
chain 2: DIVMTQAHKFMSTSVGDRVSITCQASQDVGTAVAWYQQKPGQSPKLLIYWASTRHTGVPDRFTGSGSGTDFTLTISNVQSEDLADYFCQQYSSYPYTFGGGTKLEIK
Regarding B1, the Kd was determined as 0.0273 µM.
